Target: the molecule itself
Assay: crystal structure; diFe-SulE crystals grown anoxically in 0.1 M bis-Tris pH 5.5, 24% (w/v) PEG 3350 at 293 K, treated with 100 mM H2O2; data at 100 K; space group P63; three data sets at 5%, 10% and 100% beamline flux

B1: Sulfolobus tokodaii sulerythrin reconstituted with ferrous iron (diFe-SulE) (natural protein, UniProt F9VPE5 1-144, looked up)
chain: MKDLKGTKTAENLKQGFIGESMANRRYLYFAKRADEEGYPEIAGLLRSIAEGETAHAFGHLDFIRQGGLTDPATDKPIGTLEQMIESAIAGETYEWTQMYPGFAKVAREEGFPEVAEWFETLARAEKSHAEKFQNVLKQLKGGT
notes: Sulerythrin (SulE), Sulfolobus tokodaii, UniProt F9VPE5, residues 1-145; synthetic gene in pET-28a with an N-terminal Strep-tag and a TEV protease site; Domain-swapped homodimer; each of its two binuclear metal sites holds two iron ions (four in all); Crystals were treated with 100 mM H2O2; not shown: Strep-tag, N-terminal, cleaved
With B1 the “stoichiometry N” value was 2.

— article PMC8805299, “Determining the oxidation state of elements by X-ray crystallography” (Acta Crystallographica. Section D, Structural Biology, 2022)
